Columns and labels:
Format in all cases: in vivo
[1] = test system: Arabidopsis thaliana T1 plants; experiment: Isoxaflutole tolerance of transgenic Arabidopsis thaliana T1 plants (spray, bleached leaf area grade, damage score); set-up: Scores (pesticide damage): scale not given here; conditions: spray, Arabidopsis thaliana T1 plants; for Classification and statistics of the grade of pesticide damage: Grade 0 (number of plants) / Classification and statistics of the grade of pesticide damage: Grade 1 (number of plants) / Classification and statistics of the grade of pesticide damage: Grade 2 (number of plants) / Classification and statistics of the grade of pesticide damage: Grade 3 (number of plants): 16 plants
In short: (§1)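 Damage was assessed by bleaching grade (0 none; 1 <50%; 2 >50%; 3 100% of leaf area) one week after spraying. Sprays on 18-day-old T1 and wild-type plants used field-rate multiples: topramezone 25–200, isoxaflutole 35–280, mesotrione 52.5–420 g ai/ha.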

[2] = test system: Arabidopsis thaliana T1 plants; experiment: Mesotrione tolerance of transgenic Arabidopsis thaliana T1 plants (spray, bleached leaf area grade, damage score); set-up: Scores: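 damage score 0-100 computed as Σ(N×S)/(T×M)×100 over grades 0-3 with higher meaning more damage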; conditions: Arabidopsis thaliana T1 plants; for Grade 0 (classification and statistics of the grade of pesticide damage; number of plants) / Grade 1 (classification and statistics of the grade of pesticide damage; number of plants) / Grade 2 (classification and statistics of the grade of pesticide damage; number of plants) / Grade 3 (classification and statistics of the grade of pesticide damage; number of plants): 16 plants
In short: as §1

[3] = test system: Arabidopsis thaliana T1 plants; experiment: Topramezone tolerance of transgenic Arabidopsis thaliana T1 plants (spray, bleached leaf area grade, damage score); conditions: 7 DAT, Table 4; for Classification and statistics of the grade of pesticide damage: Grade 0 / Classification and statistics of the grade of pesticide damage: Grade 1 / Classification and statistics of the grade of pesticide damage: Grade 2 / Classification and statistics of the grade of pesticide damage: Grade 3: number of plants; for Scores: pesticide damage score 0-100
In short: as §1

[4] = isoxaflutole 35 g ai/ha (0.5x field concentration)
[5] = isoxaflutole 70 g ai/ha (1x field concentration)

B1: MsHPPDm-F372A-02: nucleotide sequence encoding Medicago sativa HPPD with F372A; vector DBN11735 (nucleic acid)
DNA: ATGGCTATTGAAACCGAAACACAAACTCAGACTGGATTTAAACTGGTAGGGTTCAAGAATTTCGTTAGGGCTAATCCCAAGTCTGATCGTTTTAAGGTCAAGAGGTTCCACCACGTGGAGTTCTGGTGCACTGATGCAACCAACACGGCGCGGCGTTTTTCACATGGTCTTGGAATGCCTATTGTTGCAAAATCCGACCTCTCCACGGGGAACCAAACACACGCCTCTTACCTGCTACGGAGTGGTGACTTGAACTTCCTCTTCAGCGCCGCCTACTCACCCTCCATATCGTTGTCTTCACCATCCTCGACCGCAGCAATTCCTACATTTTCTGCGAGCAACTGCTTCTCTTTCTCTGCCAGTCATGGCCTCGCCGTCAGAGCAGTGGCCGTTGAAGTAGAGGATGCTGAACTTGCTTTTACAACTTCAGTGAATAATGGAGCAATACCGAGCAGTCCGCCGGTCATACTTGAGAATCATGTGAAGCTAGCGGAGGTGAGGCTTTATGGGGACGTCGTTTTAAGATATGTCAGCTACAATGATCCAAACCCCAATCAAAATCCAAATTTGTTGTTCCTTCCTGGCTTCGAGCGTGTTAGCGATGAATCTTCAAACTCTTCACTGGATTTTGGAATCAGACGGTTGGATCATGCTGTTGGAAATGTTCCTGAACTCTCGAGCGCTGTGAAATATGTGAAGGACTTCACCGGTTTTCATGAATTTGCTGAGTTTACTGCAGAAGATGTGGGTACATCAGAGAGTGGCTTGAATTCCGTGGTGCTCGCCAACAACGAGGAGACTGTACTCTTACCAATGAATGAGCCAGTCTATGGCACCAAGCGTAAATCTCAAATTGAGACATATTTGGAGCACAATGAAGGAGCTGGACTTCAGCATCTCGCGCTGAAGAGTGAGGACATCTTCCGCACCCTACGGGAGATGAGGAAAAGAAGTGGTGTTGGTGGGTTTGAATTCATGCCATCACCTCCTGTCACCTACTACAGGAACCTGAAGAACAGAGTTGGTGATGTACTTTCGGACGAGCAGATAAAGGAATGTGAAGAGTTGGGGATTTTGGTTGATAGAGATGATCAAGGAACACTCCTGCAGATTGCCACAAAACCAATTGGCGACCGCCCCACTATCTTCATAGAGATCATCCAGAGGGTGGGGTGCATGCTCAAAGACGAGGAAGGGAAGGAGTACCAGAAGGGCGGCTGTGGTGGTTTTGGGAAAGGAAACTTTTCTGAGTTATTCAAATCAATTGAAGAGTATGAGAAGACGCTTGAAACGCGTCGCACTGCTTGA
modifications: MsHPPDm-F372A-02 Nucleotide Sequence
notes: vector DBN11735
- Resistance evaluation [1, 4]: Poorly
- Scores (pesticide damage) [1, 4]: 54
- Classification and statistics of the grade of pesticide damage: Grade 0 (number of plants) [1, 4]: 0
- Classification and statistics of the grade of pesticide damage: Grade 1 (number of plants) [1, 4]: 6
- Classification and statistics of the grade of pesticide damage: Grade 2 (number of plants) [1, 4]: 10
- Classification and statistics of the grade of pesticide damage: Grade 3 (number of plants) [1, 4]: 0
- Resistance evaluation [1, 5]: Non-resistant
- Scores (pesticide damage) [1, 5]: 100
- Classification and statistics of the grade of pesticide damage: Grade 0 (number of plants) [1, 5]: 0
- Classification and statistics of the grade of pesticide damage: Grade 1 (number of plants) [1, 5]: 0
- Classification and statistics of the grade of pesticide damage: Grade 2 (number of plants) [1, 5]: 0
- Classification and statistics of the grade of pesticide damage: Grade 3 (number of plants) [1, 5]: 16
- Resistance evaluation ([2]; mesotrione 52.5 g ai/ha): Poorly resistant
- Scores ([2]; mesotrione 52.5 g ai/ha): 52
- Grade 0 (classification and statistics of the grade of pesticide damage; number of plants) ([2]; mesotrione 52.5 g ai/ha): 0
- Grade 1 (classification and statistics of the grade of pesticide damage; number of plants) ([2]; mesotrione 52.5 g ai/ha): 9
- Grade 2 (classification and statistics of the grade of pesticide damage; number of plants) ([2]; mesotrione 52.5 g ai/ha): 5
- Grade 3 (classification and statistics of the grade of pesticide damage; number of plants) ([2]; mesotrione 52.5 g ai/ha): 2
- Resistance evaluation ([2]; mesotrione 105 g ai/ha): Non-resistant
- Scores ([2]; mesotrione 105 g ai/ha): 100
- Grade 0 (classification and statistics of the grade of pesticide damage; number of plants) ([2]; mesotrione 105 g ai/ha): 0
- Grade 1 (classification and statistics of the grade of pesticide damage; number of plants) ([2]; mesotrione 105 g ai/ha): 0
- Grade 2 (classification and statistics of the grade of pesticide damage; number of plants) ([2]; mesotrione 105 g ai/ha): 0
- Grade 3 (classification and statistics of the grade of pesticide damage; number of plants) ([2]; mesotrione 105 g ai/ha): 16
- Classification and statistics of the grade of pesticide damage: Grade 0 ([3]; topramezone 25 g ai/ha (1×)): 5
- Classification and statistics of the grade of pesticide damage: Grade 1 ([3]; topramezone 25 g ai/ha (1×)): 7
- Classification and statistics of the grade of pesticide damage: Grade 2 ([3]; topramezone 25 g ai/ha (1×)): 4
- Classification and statistics of the grade of pesticide damage: Grade 3 ([3]; topramezone 25 g ai/ha (1×)): 0
- Classification and statistics of the grade of pesticide damage: Grade 0 ([3]; topramezone 100 g ai/ha (4×)): 0
- Classification and statistics of the grade of pesticide damage: Grade 1 ([3]; topramezone 100 g ai/ha (4×)): 4
- Classification and statistics of the grade of pesticide damage: Grade 2 ([3]; topramezone 100 g ai/ha (4×)): 9
- Classification and statistics of the grade of pesticide damage: Grade 3 ([3]; topramezone 100 g ai/ha (4×)): 3
- Scores ([3]; topramezone 25 g ai/ha (1×)): 31
- Scores ([3]; topramezone 100 g ai/ha (4×)): 65
- Resistance evaluation ([3]; topramezone 25 g ai/ha (1×)): moderately
- Resistance evaluation ([3]; topramezone 100 g ai/ha (4×)): poorly

B2: MsHPPDm-F383W-02: nucleotide sequence encoding Medicago sativa HPPD with F383W; vector DBN11736 (nucleic acid)
DNA: ATGGCTATTGAAACCGAAACACAAACTCAGACTGGATTTAAACTGGTAGGGTTCAAGAATTTCGTTAGGGCTAATCCCAAGTCTGATCGTTTTAAGGTCAAGAGGTTCCACCACGTGGAGTTCTGGTGCACTGATGCAACCAACACGGCGCGGCGTTTTTCACATGGTCTTGGAATGCCTATTGTTGCAAAATCCGACCTCTCCACGGGGAACCAAACACACGCCTCTTACCTGCTACGGAGTGGTGACTTGAACTTCCTCTTCAGCGCCGCCTACTCACCCTCCATATCGTTGTCTTCACCATCCTCGACCGCAGCAATTCCTACATTTTCTGCGAGCAACTGCTTCTCTTTCTCTGCCAGTCATGGCCTCGCCGTCAGAGCAGTGGCCGTTGAAGTAGAGGATGCTGAACTTGCTTTTACAACTTCAGTGAATAATGGAGCAATACCGAGCAGTCCGCCGGTCATACTTGAGAATCATGTGAAGCTAGCGGAGGTGAGGCTTTATGGGGACGTCGTTTTAAGATATGTCAGCTACAATGATCCAAACCCCAATCAAAATCCAAATTTGTTGTTCCTTCCTGGCTTCGAGCGTGTTAGCGATGAATCTTCAAACTCTTCACTGGATTTTGGAATCAGACGGTTGGATCATGCTGTTGGAAATGTTCCTGAACTCTCGAGCGCTGTGAAATATGTGAAGGACTTCACCGGTTTTCATGAATTTGCTGAGTTTACTGCAGAAGATGTGGGTACATCAGAGAGTGGCTTGAATTCCGTGGTGCTCGCCAACAACGAGGAGACTGTACTCTTACCAATGAATGAGCCAGTCTATGGCACCAAGCGTAAATCTCAAATTGAGACATATTTGGAGCACAATGAAGGAGCTGGACTTCAGCATCTCGCGCTGAAGAGTGAGGACATCTTCCGCACCCTACGGGAGATGAGGAAAAGAAGTGGTGTTGGTGGGTTTGAATTCATGCCATCACCTCCTGTCACCTACTACAGGAACCTGAAGAACAGAGTTGGTGATGTACTTTCGGACGAGCAGATAAAGGAATGTGAAGAGTTGGGGATTTTGGTTGATAGAGATGATCAAGGAACACTCCTGCAGATTTTTACAAAACCAATTGGCGACCGCCCCACTATCTGGATAGAGATCATCCAGAGGGTGGGGTGCATGCTCAAAGACGAGGAAGGGAAGGAGTACCAGAAGGGCGGCTGTGGTGGTTTTGGGAAAGGAAACTTTTCTGAGTTATTCAAATCAATTGAAGAGTATGAGAAGACGCTTGAAACGCGTCGCACTGCTTGA
modifications: MsHPPDm-F383W-02 Nucleotide Sequence
notes: vector DBN11736
- Resistance evaluation [1, 4]: Non-resistant
- Scores (pesticide damage) [1, 4]: 88
- Classification and statistics of the grade of pesticide damage: Grade 0 (number of plants) [1, 4]: 0
- Classification and statistics of the grade of pesticide damage: Grade 1 (number of plants) [1, 4]: 0
- Classification and statistics of the grade of pesticide damage: Grade 2 (number of plants) [1, 4]: 6
- Classification and statistics of the grade of pesticide damage: Grade 3 (number of plants) [1, 4]: 10
- Resistance evaluation [1, 5]: Non-resistant
- Scores (pesticide damage) [1, 5]: 100
- Classification and statistics of the grade of pesticide damage: Grade 0 (number of plants) [1, 5]: 0
- Classification and statistics of the grade of pesticide damage: Grade 1 (number of plants) [1, 5]: 0
- Classification and statistics of the grade of pesticide damage: Grade 2 (number of plants) [1, 5]: 0
- Classification and statistics of the grade of pesticide damage: Grade 3 (number of plants) [1, 5]: 16
- Resistance evaluation ([2]; mesotrione 52.5 g ai/ha): Non-resistant
- Scores ([2]; mesotrione 52.5 g ai/ha): 100
- Grade 0 (classification and statistics of the grade of pesticide damage; number of plants) ([2]; mesotrione 52.5 g ai/ha): 0
- Grade 1 (classification and statistics of the grade of pesticide damage; number of plants) ([2]; mesotrione 52.5 g ai/ha): 0
- Grade 2 (classification and statistics of the grade of pesticide damage; number of plants) ([2]; mesotrione 52.5 g ai/ha): 0
- Grade 3 (classification and statistics of the grade of pesticide damage; number of plants) ([2]; mesotrione 52.5 g ai/ha): 16
- Resistance evaluation ([2]; mesotrione 105 g ai/ha): Non-resistant
- Scores ([2]; mesotrione 105 g ai/ha): 100
- Grade 0 (classification and statistics of the grade of pesticide damage; number of plants) ([2]; mesotrione 105 g ai/ha): 0
- Grade 1 (classification and statistics of the grade of pesticide damage; number of plants) ([2]; mesotrione 105 g ai/ha): 0
- Grade 2 (classification and statistics of the grade of pesticide damage; number of plants) ([2]; mesotrione 105 g ai/ha): 0
- Grade 3 (classification and statistics of the grade of pesticide damage; number of plants) ([2]; mesotrione 105 g ai/ha): 16
- Classification and statistics of the grade of pesticide damage: Grade 0 ([3]; topramezone 25 g ai/ha (1×)): 0
- Classification and statistics of the grade of pesticide damage: Grade 1 ([3]; topramezone 25 g ai/ha (1×)): 0
- Classification and statistics of the grade of pesticide damage: Grade 2 ([3]; topramezone 25 g ai/ha (1×)): 4
- Classification and statistics of the grade of pesticide damage: Grade 3 ([3]; topramezone 25 g ai/ha (1×)): 12
- Classification and statistics of the grade of pesticide damage: Grade 0 ([3]; topramezone 100 g ai/ha (4×)): 0
- Classification and statistics of the grade of pesticide damage: Grade 1 ([3]; topramezone 100 g ai/ha (4×)): 0
- Classification and statistics of the grade of pesticide damage: Grade 2 ([3]; topramezone 100 g ai/ha (4×)): 0
- Classification and statistics of the grade of pesticide damage: Grade 3 ([3]; topramezone 100 g ai/ha (4×)): 16
- Scores ([3]; topramezone 25 g ai/ha (1×)): 92
- Scores ([3]; topramezone 100 g ai/ha (4×)): 100
- Resistance evaluation ([3]; topramezone 25 g ai/ha (1×)): non-resistant (non-resistant plants (scores 68-100))
- Resistance evaluation ([3]; topramezone 100 g ai/ha (4×)): non-resistant (non-resistant plants (scores 68-100))
